These results are taken from publication PMC7081238, “BrtB is an O-alkylating enzyme that generates fatty acid-bartoloside esters” (Nature Communications, 2020).

Substrate in the data set: C#CCCCCC(=O)O
Kind of data set: purified protein. The format is biochemical, Synechocystis salina. Conditions: co-substrate bartoloside G (5) 100 μM, 20 mM HEPES, 50 mM NaCl, 10 mM MgCl2, 5 mM CaCl2, pH 8.0, 37 °C, standard error, n = 3.

B1: NStrep-BrtB (Synechocystis salina LEGE 06099) (protein)
chain: MANPFDVALTNLNSLYSGIPDVPVLQTYNSLNPYDISLTNLNNLSNFVIEPAVLPTAAGTYGPQISEIAFALGGGIITGALADLLSTELGIEIENEALITKFLSFWTPGSDYAFGQDYVEFIQGREGFDTIIGYDPGFNSALAPVQIDFVLGGPRQDFNFFAPLDEPARYVLGDWRTPYYVDNDIQSEGLNEFMYVSLFTLNPDEFSPDNAENHRIQLYGSLDNYYFVPTTVVIDGSALDPSLPSIPVPGTEIYYKTGQVFADLIAIVPFQDPNDPNLISAWIDFEGYLPPEQADLSGQTANPLLSGSPLLQLGYEGIDMGTATALAPDGDIYVAGSTSSLLGPFPRGGSDNFIARYNDDGSLEWIVQFGSTEFDIITDIVSDSAGNVYATGWTRGNVETGFGLAPGVQDNWVAKFDANGSQLWVEQFTIDGYLDRSMGIALDEVNGRIHLTGHSNTDGSVADTNDPAIVPNGNVVTWIAGFDANTGAEDYRNVFEVAQTSNSRGRIDEGFGIDVDDAGNVFSTGWAGENAYDVYLVKSDTDGAVLWTKSFGTGSNATQSYAWDVASDGTNAYILGWTQGELNTFRDQIPPTDEFAGNATAPLTPQNAYQGGTFDAFVAAYDTDGTELWTWHVGGTGDDGTFFGKIVAAGDFVYATGYTDGFIGTLGGSNAGDYDAWIGKFDKLTGQTAWIQQIGSTKLDYATGISVDGDDIFVTGFTEGSLGGLNGGASDAWVAKLNQDGALEAFNVSAPIAPPAPFAPPAPLTPPAPPAPDLSSLQSLGSTPQPTYPALGDSYGTNPFGTQPTQPTYDLSSMYQNAYYGGFGGYSGYGY
notes: N-terminal Strep-Tag, pET-51b, E. coli BL21 (DE3) Rosetta; cloning primers imply N-terminus MANPF and C-terminus GYGY; two protein preparations pooled 1:1
With B1, the Km was determined as 234 ± 41 µM.
